Measurements taken from patent US20240150489A1 (ICHNOS SCIENCES, published 2024).

What was measured:
[1] = molecular target: T1, recombinant cynomolgus monkey CD38-ECD-C-his (cynomolgus monkey, UniProt Q5VAN0 45-301); experiment: SPR, His-captured cyno CD38, Fab analyte, 1:1 fit
T1 construct: Extracellular region fused to 6-His; also called cyno CD38-C-His; recombinant cynomolgus monkey CD38 protein
Procedure: (§1) Surface plasmon resonance (SPR) was used to measure the binding affinities of the Fab fragments for human and cynomolgus monkey CD38. Affinities were measured on a Biacore T200 instrument (Biacore, GE Healthcare) at 25° C. and analyzed with the Biacore T200 Evaluation Software (v3.1).
(§2) The affinities to human and cynomolgus monkey CD38 were assessed by immobilizing CD38 and using Fab fragments as analyte. Biotinylated recombinant human CD38 protein was immobilized to around 160 RU on flow-path 2 of a Series S Sensor Chip SA or to around 100 RU on flow-path 2 of a Series S BiotinCAPture Chip and recombinant cynomolgus monkey CD38-his protein was immobilized to around 50-100 RU on flow-path 2 of a Series S CM5 Sensor Chip previously coated with anti-histidin antibody. Fab fragments were injected in single cycle kinetic at different concentrations ranging from 7.8 to 2000 nM, in HBS-EP+ buffer (Biacore, GE Healthcare, catalog NO: BR100669) at a flow rate of 30 μl/min for 3 min on flow-path 1 and 2 (flow-path 1 being used as reference). Dissociation was monitored for 5 min.

[2] = molecular target: T2, recombinant biotinylated human CD38 Avitag, His Tag (Acrobiosystems, CD8-H82E7) (human, UniProt P28907 43-300, biotinylated (Avitag)); experiment: SPR, biotinylated CD38 captured, Fab analyte, 1:1 fit;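 further: biacore T200 at 25 °C, single-cycle kinetics with Fab injected at 7.8–2000 nM for 3 min, dissociation followed 5 min, reference flow path subtracted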
T2 construct: Bought protein; also called biotinylated human CD38-avi-his protein; biotinylated recombinant human CD38 protein
Procedure: as §1, §2

[3] = molecular target: T3, recombinant human CD38-ECD-C-his (human, UniProt P28907 43-300); experiment: SPR, Fab captured as ligand, CD38 analyte
T3 construct: Extracellular region fused to 6-His, made in house; also called human CD38-C-His; recombinant human CD38 protein
Procedure: (§3) Affinities of the Fab to human and cynomolgus CD38 using the Fab as ligand were measured on a Biacore T200 instrument (Biacore, GE Healthcare) at 25° C. and analyzed with the BiacoreT200 Evaluation Software (v3.1). […] The affinities to human and cynomolgus monkey CD38 were assessed by immobilizing Fab fragments and using human or cynomolgus monkey CD38 protein as analyte. Around 50-200 RU of Fab was captured on flow-path 2 of a Series S CM5 Sensor Chip coupled with anti-human Fab antibodies. Human or cynomolgus monkey CD38 was injected in multi cycle kinetic at different concentrations ranging from 0.2 to 100 nM, in HBS-EP+ buffer (Biacore, GE Healthcare, catalog NO: BR100669) at a flow rate of 30 μl/min for 5 min on flow-path 1 and 2 (flow-path 1 being used as reference). Dissociation was monitored for 10 min. […] Experimental data were processed using the 1:1 Langmuir kinetic fitting model. Measurements included zero-concentration samples for referencing. Chi², U- and residual values were used to evaluate the quality of a fit between the experimental data and individual binding models.

[4] = molecular target: T1, recombinant cynomolgus monkey …; experiment: SPR, His-captured cyno CD38, Fab as analyte
[5] = molecular target: T1, recombinant cynomolgus monkey …; experiment: SPR, Fab captured as ligand, cyno CD38 analyte
Procedure: as §3

[6] = molecular target: T2, recombinant biotinylated human CD38 …; experiment: SPR, biotinylated CD38 captured, Fab as analyte

Row | Binder | Kd [1] [µM] | Kd [2] [µM] | Kd [3] [µM] | Kd [4] [µM] | Kd [5] [µM] | Kd [6] [µM]
1 | Anti-CD38-UCP03-B1 Fab (Fab, V domains shown, human IgG1 Fab) VH: QVQLVQSGAEVKKPGSSVKVSCKASGGGFSKYFITWVRQAPGQGLEWMGGVIPKIGYTSYAQKFQGRVTITADESTSTAYMELSSLRSEDTAVYYCARGSDDYASYSPLDSWGQGTLVTVSS VL: not shown | 0.462 | 0.882 | – | – | – | –
2 | Anti-CD38-UCP03-H2 Fab (Fab, V domains shown, human IgG1 Fab) VH: QVQLVQSGAEVKKPGSSVKVSCKASGGEFSIYVISWVRQAPGQGLEWMGRVIPSTGDTNYAQKFQGRVTITADESTSTAYMELSSLRSEDTAVYYCARGKAYYSGWLAIWGQGTLVTVSS VL: not shown | 0.672 | 1.85 | – | – | – | –
3 | Anti-CD38-UCP03-H3 Fab (Fab, V domains shown, human IgG1 Fab) VH: QVQLVQSGAEVKKPGSSVKVSCKASGGVFSQFPISWVRQAPGQGLEWMGGIIAGYGATEYAQKFQGRVTITADESTSTAYMELSSLRSEDTAVYYCARVYGGIDWGQGTLVTVSS VL: not shown | 0.178 | 0.81 | – | – | – | –
4 | Anti-CD38-UCP03-A6 Fab (Fab, V domains shown, human IgG1 Fab) VH: QVQLVQSGAEVKKPGSSVKVSCKASGGDFSLYAISWVRQAPGQGLEWMGGIIPLLGEPVYAQKFQGRVTITADESTSTAYMELSSLRSEDTAVYYCARGHRVYSSSPFDYWGQGTLVTVSS VL: not shown | 0.525 | 0.41 | – | – | – | –
5 | anti-CD38-B6-MP02-B10 FAB (Fab, V domains shown, human IgG1 Fab) VH: QVQLVQSGAEVKKPGSSVKVSCKASGGHNLGKIINWVRQPPGQGLEWMGRVIPVIDDAYYAQKFQGRVTITADESTSTAYMELSSLRSEDTAVYYCARSRGYYGSFYFDIWGQGTLVTVSS VL: not shown | – | – | 0.108 | 0.0812 | 0.528 | 0.0201
6 | anti-CD38-B6-MP02-G11 FAB (Fab, V domains shown, human IgG1 Fab) VH: QVQLVQSGAEVKKPGSSVKVSCKASGGHTLPPIINWVRQAPGQGLEWMGRVIPVIDDAYYAQKFQGRVTITADESTSTAYMELSSLRSEDTAVYYCARSRGYYGSFYFDIWGQGTLVTVSS VL: not shown | – | – | 0.128 | 0.262 | 0.534 | 0.425
7 | anti-CD38-B6-MP02-C1 FAB (Fab, V domains shown, human IgG1 Fab) VH: QVQLVQSGAEVKKPGSSVKVSCKASGGHQLGKIINWVRQAPGQGLEWMGRVIPVIDDAYYAQKFQGRVTITADESTSTAYMELSSLRSEDTAVYYCARSRGYYGSFYFDIWGQGTLVTVSS VL: not shown | – | – | 0.0977 | 0.0672 | 0.333 | 0.012
8 | anti-CD38-B6-MP02-C2 FAB (Fab, V domains shown, human IgG1 Fab) VH: QVQLVQSGAEVKKPGSSVKVSCKASGGHGQQRIINWVRQAPGQGLEWMGRVIPVIDDAYYAQKFQGRVTITADESTSTAYMELSSLRSEDTAVYYCARSRGYYGSFYFDIWGQGTLVTVSS VL: not shown | – | – | 0.404 | – | 0.342 | 0.101
9 | anti-CD38-B6-MP01-H3b FAB (Fab, V domains shown, human IgG1 Fab) VH: QVQLVQSGAEVKKPGSSVKVSCKASGGPFQSNIVNWIRQAPGQGLEWMGRVIPVIDDAYYAQKFQGRVTITADESTSTAYMELSSLRSEDTAVYYCARSRGYYGSFYFDIWGQGTLVTVSS VL: not shown | – | – | 0.171 | 0.13 | 0.33 | 0.0289
10 | anti-CD38-B6-MP01-C2 FAB (Fab, V domains shown, human IgG1 Fab) VH: QVQLVQSGAEVKKPGSSVKVSCKASGGAFSDYVISWVRQAPGQGLEWMGRVIPVIDDAYYAQKFQGRVTITADESTSTAYMELSSLRSEDTAVYYCARSRGYYGSFYFDIWGQGTLVTVSS VL: not shown | – | – | 0.345 | – | – | 0.209
11 | anti-CD38-B6-MP01-A4 FAB (Fab, V domains shown, human IgG1 Fab) VH: QVQLVQSGAEVKKPGSSVKVSCKASGGPFSDYVINWVRQAPGQGLEWMGRVIPVIDDAYYAQKFQGRVTITADESTSTAYMELSSLRSEDTAVYYCARSRGYYGSFYFDIWGQGTLVTVSS VL: not shown | – | – | 0.227 | 0.229 | 0.828 | 0.0849
12 | anti-CD38-E2-UCP02-F3 FAB (Fab, V domains shown, human IgG1 Fab; also called anti-CD38-E2-F3) VH: QVQLVQSGAEVKKPGSSVKVSCKASGGSFSNYAIGWVRQAPGQGLEWMGRIIPVLDAAHYAQKFQGRVTITADESTSTAYMELSSLRSEDTAVYYCARGLGYYLYSSYYFDIWGQGTLVTVSS VL: not shown | – | – | 0.00613 | 0.0024 | – | 0.0035

The remaining lines, values ahead:

Row | Kd [1] [µM] | Kd [2] [µM] | Kd [3] [µM] | Kd [4] [µM] | Kd [5] [µM] | Kd [6] [µM] | Binder
13 | – | – | 0.0023 | 0.00333 | 0.0052 | 0.00055 | anti-CD38-B6-MP01-D9 FAB (Fab, V domains shown, human IgG1 Fab; also called anti-CD38-B6-D9) VH: QVQLVQSGAEVKKPGSSVKVSCKASGGFFSHYIINWVRQAPGQGLEWMGRVIPVIDDAYYAQKFQGRVTITADESTSTAYMELSSLRSEDTAVYYCARSRGYYGSFYFDIWGQGTLVTVSS VL: not shown
14 | – | – | 0.0894 | 0.12 | 0.389 | 0.0283 | anti-CD38-B6-MP01-H3a FAB (Fab, V domains shown, human IgG1 Fab) VH: QVQLVQSGAEVKKPGSSVKVSCKASGGPFNANIVNWIRQAPGQGLEWMGRVIPVIDDAYYAQKFQGRVTITADESTSTAYMELSSLRSEDTAVYYCARSRGYYGSFYFDIWGQGTLVTVSS VL: not shown
15 | – | – | 0.0516 | 0.0454 | 0.167 | 0.0119 | anti-CD38-B6-MP01-B4 FAB (Fab, V domains shown, human IgG1 Fab) VH: QVQLVQSGAEVKKPGSSVKVSCKASGYEFNTYIINWVRQAPGQGLEWMGRVIPVIDDAYYAQKFQGRVTITADESTSTAYMELSSLRSEDTAVYYCARSRGYYGSFYFDIWGQGTLVTVSS VL: not shown
16 | – | – | 0.0016 | – | 0.0044 | – | anti-CD38-420-E2-RecB FAB (Fab, V domains shown, human IgG1 Fab) VH: QVQLVQSGAEVKKPGSSVKVSCKASGLPDATYAIGWVRQAPGQGLEWMGRIIPALAATHYAQKFQGRVTITADESTSTAYMELSSLRSEDTAVYYCARGLGYYLYSSYYFDIWGQGTLVTVSS VL: not shown
17 | – | – | 0.0013 | – | 0.0039 | – | anti-CD38-420-E2-RecC FAB (Fab, V domains shown, human IgG1 Fab) VH: QVQLVQSGAEVKKPGSSVKVSCKASGLPDATYAIGWVRQAPGQGLEWMGRIIPVLDAAHYAQKFQGRVTITADESTSTAYMELSSLRSEDTAVYYCARGLGYYLYSSYYFDIWGQGTLVTVSS VL: not shown
18 | – | – | 0.0169 | 0.0086 | – | 0.0094 | anti-CD38-E2-UCP01-A10 FAB (Fab, V domains shown, human IgG1 Fab) VH: QVQLVQSGAEVKKPGSSVKVSCKASGLPDATYAIGWVRQAPGQGLEWMGRIIPVFGSAHYAQKFQGRVTITADESTSTAYMELSSLRSEDTAVYYCARGLGYYLYSSYYFDIWGQGTLVTVSS VL: not shown
19 | – | – | 0.0067 | – | 0.0221 | – | anti-CD38-420-E2-RecD FAB (Fab, V domains shown, human IgG1 Fab) VH: QVQLVQSGAEVKKPGSSVKVSCKASGLPDATYAIGWVRQAPGQGLEWMGRIIPALGGVHYAQKFQGRVTITADESTSTAYMELSSLRSEDTAVYYCARGLGYYLYSSYYFDIWGQGTLVTVSS VL: not shown
20 | – | – | 0.0162 | 0.0245 | – | 0.0176 | anti-CD38-E2-UCP02-F8 FAB (Fab, V domains shown, human IgG1 Fab; also called anti-CD38-E2-F8) VH: QVQLVQSGAEVKKPGSSVKVSCKASGGSFSNYAIGWVRQAPGQGLEWMGRIIPSLDAGHYAQKFQGRVTITADESTSTAYMELSSLRSEDTAVYYCARGLGYYLYSSYYFDIWGQGTLVTVSS VL: not shown
21 | – | – | 0.00466 | 0.0018 | – | 0.0022 | anti-CD38-E2-UCP02-E7 FAB (Fab, V domains shown, human IgG1 Fab) VH: QVQLVQSGAEVKKPGSSVKVSCKASGGSFSNYAIGWVRQAPGQGLEWMGRIIPALAATHYAQKFQGRVTITADESTSTAYMELSSLRSEDTAVYYCARGLGYYLYSSYYFDIWGQGTLVTVSS VL: not shown
22 | – | – | 0.00535 | 0.0011 | – | 0.0049 | anti-CD38-E2-UCP02-D6 FAB (Fab, V domains shown, human IgG1 Fab) VH: QVQLVQSGAEVKKPGSSVKVSCKASGGSFSNYAIGWVRQAPGQGLEWMGRIIPRLDAEHYAQKFQGRVTITADESTSTAYMELSSLRSEDTAVYYCARGLGYYLYSSYYFDIWGQGTLVTVSS VL: not shown
23 | – | – | 0.035 | 0.0044 | – | 0.0236 | anti-CD38-E2-UCP02-A5 FAB (Fab, V domains shown, human IgG1 Fab) VH: QVQLVQSGAEVKKPGSSVKVSCKASGGSFSNYAIGWVRQAPGQGLEWMGRIIPDLGAAHYAQKFQGRVTITADESTSTAYMELSSLRSEDTAVYYCARGLGYYLYSSYYFDIWGQGTLVTVSS VL: not shown
24 | – | – | 0.0009 | – | 0.0037 | – | anti-CD38-420-E2-RecA FAB (Fab, V domains shown, human IgG1 Fab; also called anti-CD38-E2-RecA) VH: QVQLVQSGAEVKKPGSSVKVSCKASGLPDATYAIGWVRQAPGQGLEWMGRIIPRLDAEHYAQKFQGRVTITADESTSTAYMELSSLRSEDTAVYYCARGLGYYLYSSYYFDIWGQGTLVTVSS VL: not shown
25 | – | – | 0.0077 | 0.0042 | – | 0.0052 | anti-CD38-E2-UCP02-G8 FAB (Fab, V domains shown, human IgG1 Fab) VH: QVQLVQSGAEVKKPGSSVKVSCKASGGSFSNYAIGWVRQAPGQGLEWMGRIIPALGGVHYAQKFQGRVTITADESTSTAYMELSSLRSEDTAVYYCARGLGYYLYSSYYFDIWGQGTLVTVSS VL: not shown
